Test results taken from publication PMC5685557 (Structure (London, England : 1993), 2017).
Substitutions are numbered along the chain they refer to. In names and notes the source's numbering stands. Several values for one entry are separate records, joined by “and”; a condition that tells them apart may be missing. Identical values can stand only once.

B1: mouse myocilin leucine zipper construct mLZ_(93-171) (domain or fragment, UniProt O70624 93-171, looked up)
chain: VTGTQEAQEGLQGQLGALRRERDQLETQTRDLEAAYNNLLRDKSALEEEKRQLEQENEDLARRLESSSEEVTRLRRGQC
B2: myocilin construct CC_(33-111) (domain or fragment, human, UniProt Q99972 33-111, looked up)
chain: RTAQLRKANDQSGRCQYTFSVASPNESSCPEQSQAMSVIHNLQRDSSTQRLDLEATKARLSSLESLLHQLTLDQAARPQ
B3: myocilin N-terminal domain construct NTD_(33-226), wild type (domain or fragment, human, UniProt Q99972 33-226, looked up)
chain: RTAQLRKANDQSGRCQYTFSVASPNESSCPEQSQAMSVIHNLQRDSSTQRLDLEATKARLSSLESLLHQLTLDQAARPQETQEGLQRELGTLRRERDQLETQTRELETAYSNLLRDKSVLEEEKKRLRQENENLARRLESSSQEVARLRRGQCPQTRDTARAVPPGSREVSTWNLDTLAFQELKSELTEVPASR
B4: NTD_(33-226) (C47S/C61S/C185S) (domain or fragment, human, UniProt Q99972 33-226, looked up)
chain: B3 chain with C15S, C29S, C153S
B5: myocilin coiled-coil construct CC_(69-184) (domain or fragment, human, UniProt Q99972 69-184, looked up)
chain: SVIHNLQRDSSTQRLDLEATKARLSSLESLLHQLTLDQAARPQETQEGLQRELGTLRRERDQLETQTRELETAYSNLLRDKSVLEEEKKRLRQENENLARRLESSSQEVARLRRGQ
B6: myocilin coiled-coil construct CC_(112-185) (domain or fragment, human, UniProt Q99972 112-185, looked up)
chain: ETQEGLQRELGTLRRERDQLETQTRELETAYSNLLRDKSVLEEEKKRLRQENENLARRLESSSQEVARLRRGQC
B7: myocilin coiled-coil construct CC_(60-185) (domain or fragment, human, UniProt Q99972 60-185, looked up)
chain: SCPEQSQAMSVIHNLQRDSSTQRLDLEATKARLSSLESLLHQLTLDQAARPQETQEGLQRELGTLRRERDQLETQTRELETAYSNLLRDKSVLEEEKKRLRQENENLARRLESSSQEVARLRRGQC
B8: myocilin coiled-coil construct CC_(69-185) (domain or fragment, human, UniProt Q99972 69-185, looked up)
chain: SVIHNLQRDSSTQRLDLEATKARLSSLESLLHQLTLDQAARPQETQEGLQRELGTLRRERDQLETQTRELETAYSNLLRDKSVLEEEKKRLRQENENLARRLESSSQEVARLRRGQC

Key:
SEC-SAXS = target: the molecule itself; experiment: SEC-SAXS
SEC [1] = target: the molecule itself; experiment: SEC
cross-linking = target: the molecule itself; experiment: cross-linking
non-reducing SDS-PAGE = target: the molecule itself; experiment: non-reducing SDS-PAGE
SEC [2] = target: the molecule itself; experiment: SEC; remark: listed apart in the source

Protein	stoichiometry N (SEC-SAXS)	stoichiometry N (SEC [1])	stoichiometry N (cross-linking)	stoichiometry N (non-reducing SDS-PAGE)	binding result (SEC [2])
B1	2.2	–	–	–	–
B2	2.8	4	2	–	–
B3	–	–	2 and 4	~8	–
B4	–	–	–	–	binds
B5	–	4	–	–	–
B6	2.4	2	–	–	–
B7	4.9	–	–	–	–
B8	3.6	–	4	2	–
